Our source for the Kd, koff and kon values is patent US20240392002A1 (EXELIXIS, published 2024).

Experiment [1] addresses T1, extracellular domain of human ROR1 (human, UniProt Q01973 30-406).
T1 construct: bought protein; biotinylated in the bivalent assay format; also called Acro Cat. No. RO1-H522y
Nature of the experiment: BLI, monovalent format. The protocol:
(§1) More specifically, monovalent binding affinity analysis was performed using the Octet^QK 384 (ForteBio) using Fc biosensors. Unlabeled B-body™ is first bound to the Fc biosensor at a concentration to yield approximately 1 nm response (typically 10 to 50 nM protein). The biosensors are then equilibrated in 10× Kinetic Buffer (ForteBio) to establish a baseline. The untagged monomer of each antigen is contacted with the antibody-coated sensors at concentrations ranging from 50 nm to 0.75 nM. The association response and dissociation were monitored and recorded. The resulting Kₒₙ and Koff was fit using the Octet analysis software.
(§2) Next, the binding of the antibody to ROR1 and ROR2 was assessed using the monovalent and bivalent BLI binding assessments as described in Example 24.
(In general: Biolayer interferometry detects binding as a change in optical thickness at a sensor tip.)

Experiment [2] concerns the target T2, extracellular domain of human ROR2 (human, UniProt Q01974 34-403).
T2 construct: bought protein; biotinylated in the bivalent assay format; also called Acro Cat. No. RO2-H52E5
Nature of the experiment: BLI, monovalent format. The protocol: as §1, §2

Experiment [3] concerns the target T3, cynomolgus CD3 delta and epsilon heterodimer (cynomolgus, UniProt Q95LI5 22-117; Q95LI8 22-105).
T3 construct: untagged monomer of the antigen in solution
Briefly: BLI, monovalent format, B-body on Fc biosensor. As for the experimental part:
as §1

The target in experiment [4] is T1, extracellular domain of human ROR1. Nature of the experiment: BLI, bivalent format, biotinylated antigen on streptavidin biosensor. The protocol:
(§3) Bivalent binding analysis was performed using the Octet^QK 384 (ForteBio) using streptavidin biosensors. Biotinylated antigen was first bound to the streptavidin biosensor at a concentration to yield approximately 1 nm response (typically 10 to 50 nM biotinylated protein). The biosensors were then equilibrated in 10× Kinetic Buffer (ForteBio) to establish a baseline. The 1×2 B-body™ was contacted with the antigen-coated sensors at concentrations ranging from 50 nm to 0.75 nM. The association response and dissociation were monitored and recorded. The resulting Kₒₙ and Koff was fit using the Octet analysis software.
as §2

In experiment [5] the target is T2, extracellular domain of human ROR2. The experiment is described as above. The protocol:
as §3, §2

Experiment [6] deals with T3, cynomolgus CD3 delta and epsilon …. Nature of the experiment: BLI (Octet QK384), monovalent format: B-body captured on Fc biosensor, untagged antigen as analyte. The protocol: as §1
Experiment [7] has as its target T1, extracellular domain of human ROR1. The description is as above. As for the experimental part:
as §1
(§4) Monovalent binding analysis was performed as described above and the antibody was captured with an Fc sensor and contacted with the indicated antigen for the association phase followed by a dissociation phase in buffer only.
as §2

The target in experiment [8] is T2, extracellular domain of human ROR2. The description is as above. As for the experimental part: as §1, §4, §2
Experiment [9] deals with T1, extracellular domain of human ROR1. Nature of the experiment: BLI (Octet QK384), bivalent format: biotinylated antigen on streptavidin biosensor, 1x2 B-body as analyte. The protocol: as §3, §2
The target in experiment [10] is T2, extracellular domain of human ROR2. The description is as above. As for the experimental part: as §3, §2

T3 sequence (Q95LI5 22-117, stated change not applied, chain 1 of 2): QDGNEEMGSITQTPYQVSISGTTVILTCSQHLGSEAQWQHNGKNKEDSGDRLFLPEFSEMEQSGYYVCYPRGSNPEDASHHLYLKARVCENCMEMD
T3 sequence (Q95LI8 22-105, stated change not applied, chain 2 of 2): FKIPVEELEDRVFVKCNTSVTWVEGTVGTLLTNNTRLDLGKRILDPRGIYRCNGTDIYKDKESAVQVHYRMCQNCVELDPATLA
T2 sequence (Q01974 34-403 limits assumed): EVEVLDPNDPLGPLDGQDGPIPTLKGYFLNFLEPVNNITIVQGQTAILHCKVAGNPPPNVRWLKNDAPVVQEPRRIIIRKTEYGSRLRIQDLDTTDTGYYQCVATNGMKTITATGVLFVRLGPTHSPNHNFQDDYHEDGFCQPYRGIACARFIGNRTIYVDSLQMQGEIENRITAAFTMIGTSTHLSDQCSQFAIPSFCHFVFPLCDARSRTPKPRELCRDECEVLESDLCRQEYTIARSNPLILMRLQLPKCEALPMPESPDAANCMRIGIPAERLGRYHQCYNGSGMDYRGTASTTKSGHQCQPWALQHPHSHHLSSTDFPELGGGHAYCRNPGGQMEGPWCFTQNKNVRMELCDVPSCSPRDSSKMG
T1 sequence (Q01973 30-406 limits assumed): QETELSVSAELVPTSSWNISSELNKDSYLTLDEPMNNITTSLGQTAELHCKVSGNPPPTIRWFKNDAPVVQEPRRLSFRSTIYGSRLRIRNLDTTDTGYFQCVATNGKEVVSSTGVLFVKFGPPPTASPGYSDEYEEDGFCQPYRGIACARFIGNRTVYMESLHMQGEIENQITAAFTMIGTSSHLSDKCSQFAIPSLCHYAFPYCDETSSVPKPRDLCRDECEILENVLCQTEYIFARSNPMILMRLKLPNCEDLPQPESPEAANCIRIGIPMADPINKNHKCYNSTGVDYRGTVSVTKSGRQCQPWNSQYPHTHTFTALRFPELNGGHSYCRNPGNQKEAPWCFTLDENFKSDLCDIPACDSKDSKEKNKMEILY

B1: I2-A10 D54E Y55Q 1×2 B-body™ (ROR1/ROR2xCD3) (bispecific antibody)
chain 1: DIQMTQSPSSLSASVGDRVTITCRASQSVSSAVAWYQQKPGKAPKLLIYSASSLQSGVPSRFSGSRSGTDFTLTISSLQPEDFATYYCQQYYYYPGTFGQGTKVEIKRTPREPQVYTLPPSRDELTKNQVSLKCLVKGFYPSDIAVEWESNGQPENNYKTTPPVLDSDGSFFLYSKLTVDKSRWQQGNVFSCSVMHEALHNHYTQKSLSLSKSCDKTHTCPPCPAPEAAGGPSVFLFPPKPKDTLMISRTPEVTCVVVDVSHEDPEVKFNWYVDGVEVHNAKTKPREEQYNSTYRVVSVLTVLHQDWLNGKEYKCKVSNKALKAPIEKTISKAKGQPREPQVCTLPPSREEMTKNQVSLSCAVKGFYPSDIAVEWESNGQPENNYKTTPPVLDSDGSFFLVSKLTVDKSRWQQGNVFSCSVMHEALHNHYTQKSLSLSPGK
chain 2: EVQLVESGGGLVQPGGSLRLSCAASGFTFSSYFIHWVRQAPGKGLEWVAGIYPSEGYTSYADSVKGRFTISADTSKNTAYLQMNSLRAEDTAVYYCARYYVSGMDYWGQGTLVTVSSASPREPQVYTDPPSRDELTKNQVSLTCLVKGFYPSDIAVEWESNGQPENNYKTTPPVLDSDGSFFLYSKLTVDKSRWQQGNVFSCSVMHEALHNHYTQKSLSLSGEC
chain 3: not shown
chain 4: EVQLVESGGGLVQPGGSLRLSCAASGFTFNTYAMNWVRQAPGKGLEWVARIRSKYNNYATYYADSVKGRFSISRDDSKNTAYLQMNSLRAEDTAVYYCVRHGNFGNSYVSWFAYWGQGTLVTVSSASTKGPSVFPLAPSSKSTSGGTAALGCLVKDYFPEPVTVSWNSGALTSGVHTFPAVLQSSGLYSLSSVVTVPSSSLGTQTYICNVNHKPSNTKVDKKVEPPKSC
notes: two ROR sites, one SP34-89 CD3 site; chain 5 is the same as chain 2; also called I2A-10 D54E Y55Q BC1 1×2
One may read the koff as the rate constant with which the complex falls apart. Read a low koff as slow dissociation. For orientation: kon means a measure of how fast the partners come together. High values mean fast association, low ones slow association. B1: the Kd in [1] was 0.46 nM; in [2], < 1 pM; in experiment [3], 3.5 nM; in [4] it was 0.021 nM; in [5], 3 pM; in experiment [10], 3.3 pM. Moreover, the koff was 0.00063 s⁻¹ in experiment [6], 0.00023 s⁻¹ in [7], < 1e-07 s⁻¹ in experiment [8] and 1.1e-05 s⁻¹ in [9]. The kon is 180000 M⁻¹ s⁻¹ in [6]; 480000 M⁻¹ s⁻¹ in experiment [7]; 140000 M⁻¹ s⁻¹ in experiment [8]; 510000 M⁻¹ s⁻¹ in experiment [9]; 1.4e+06 M⁻¹ s⁻¹ in experiment [10].
